Data as given in the DeepSol protein solubility set.

Assay: soluble on expression in E. coli; label from the status in PepcDB or PDB records
For “MSVDSLPTLFQWARDNLLKEEALAISALEELPIHLFPEMFKVAFTDRHTKVLIAMVSAWPFPCLPVGTLIEDPHLETLKAVLDGLNVLVTGKVHSSRCKLRVLDLRRNVHHDFWSIQTGSHEDNCPAQIVAQKQPVETCPNPRREIPFMVVTDFELTQESFDEWTIYLMQWIQERKSSIHLCCRKLNSCASPVSNVIEIFKLVDLNCILELQLSQWWPEVLEELDPYLEGMNNLHTLMLEGLKPFRFTACEEDQEDEWQSTLPSLLSNFGSLQNLYLNDIYLLEDSLDKWLGCLKTPLKTLSITDCPRLLQSDFECLPNCPNICKLKHLNLNALFLSDVGYEIPGLILEKVTSTLQILELERCGMTDPHFKALMPALSKCSQLLKVSFCHNDISLRVLKTLLCHTAKLSQLTQELYPAPQECYEDYKILKDRFKKLCPELLNILKAKRQPKKVSFTTQTCLKCLHSCHYYYNLEATDCLCQCICQ”, the “soluble on expression in E. coli” value was “not soluble”. With “MSVEAEKAVLGTFLECPYLLKETVLTETHFSDPKHRKLFAAMKRIAQQGDEPDIVTLSTTEDVADFGGLSYLNEVSAFANETKFDQYEALVLDEWKEREKRRILVVAAQENWDIDKITTALTRLNEGRITDHHDISDLLHEVAEAPWTPTERKMGAPSGISELDKMLNGFNDGDSIILAARPSMGKTDFMIHFAKSVGWHGYLPIVFSLEMAADKIRDRLIGSIGGFNRMKLRNPYHDLSEEQKRMWIEVIGKASETRMQIFDGAGQSIADIRSKIRKAINRFPDRKPVVFIDYLTLIRPERYYGGNMHLQVTEISRAIKETAKEFSCPIITLAQLSRDVEKRSDKRPLMSDIRESGSIEQDADVVIFLYRDSYYNADADPRVAEVIVAKSRNGAVGTVRVSYNRNTGVIQDLYRP” the “soluble on expression in E. coli” value was “not soluble”. In the case of “MSVEASNQENSLSSFLLKCAFPAGTTPPLLSPPSSSGSYEEAQFSLFVNQNETEQKLFSNQSLANRDPCTIPDELHQEMKSLKKKEEAFKTSLCGFHRRGQKCAYGEKCKFAHSVHELRFPQTKRNHRNYKTVLCNNFSTTGHCKYGIRCQFIHRSMNSTSSNQSNKMENITIDLNVQSDVFRAFALDSTSLLPNWHCSALLQ”, the “soluble on expression in E. coli” value is reported as “not soluble”. With “MSVEASRTCFLIDSLLNKKPKEELETEEEDEEEDEEEELSSSEVTSENDMETESASSSASSVGQPKPDFSAFHKIFSNLDFAKLAAVKRNGHHQPMLFRPECFFPLELSKHLHLVQQTFQMNVLQNLGHTLPLPFVPMLKNVAPAQKRLNNKRASYVDHSQKGNLKKYRCDVCDKTFSRSNTLITHKRIHTGEKPFKCEHCGRAFRQPGNLTRHRLTHTTVKPYVCGLCDKAFNRASNLHTHMRTHTNV” the “soluble on expression in E. coli” value was “not soluble”. In the case of “MSVIAITGSASGIGAALKELLARAGHTVIGIDRGQADIEADLSTPGGRETAVAAVLDRCGGVLDGLVCCAGVGVTAANSGLVVAVNYFGVSALLDGLAEALSRGQQPAAVIVGSIAATQPGAAELPMVEAMLAGDEARAIELAEQQGQTHLAYAGSKYAVTCLARRNVVDWAGRGVRLNVVAPGAVETPLLQASKADPRYGESTRRFVAPLGRGSEPREVAEAIAFLLGPQASFIHGSVLFVDGGMDALMRAKTF”, the “soluble on expression in E. coli” value is reported as “soluble”. For “MSVKMKKCSREDLQTLQQLSIETFNDTFKEQNSPENMKAYLESAFNTEQLEKELSNMSSQFFFIYFDHEIAGYVKVNIDDAQSEEMGAESLEIERIYIKNSFQKHGLGKHLLNKAIEIALERNKKNIWLGVWEKNENAIAFYKKMGFVQTGAHSFYMGDEEQTDLIMAKTLILEHHHHHH”, the “soluble on expression in E. coli” value was “soluble”. With “MSVLDELYREILLDHYQSPRNFGVLPQATKQAGGMNPSCGDQVEVMVLLEGDTIADIRFQGQGCAISTASASLMTEAVKGKKVAEALELSRKFQAMVVEGAPPDPTLGDLLALQGVAKLPARVKCATLAWHALEEALR” the “soluble on expression in E. coli” value was “soluble”. With “MSVQLKCDAVNCVYNRSHLCSAEEIEVQGGETTGGDATFCGTFSSKSLGNFVSSLGNMNYSGSLKQAVSAEPIMDPKVHCNAVNCTYNDQRYCHADQVEIRNEVSHTAEETECQTFYPKMSLEHHHHHH” the “soluble on expression in E. coli” value was “not soluble”. For “MSWDLSTAKPPVVVDTTLRDGSHAHRHQYTVEEARAIAQALDEAGVYAIEVSHGDGLGGSSLQYGFSRTDEMELIRAVRETVRRAKVAALLLPGIGTRKELKEAVEAGIQMVRIATQCTEADISEQHFGMAKEMGLEAVGFLMMSHMRPPEFLAEQARLMEGYGADVVYIVDSAGAMLPEDAYARVKALKEALSRAKVGFHAHNNLGLAIGNTLAALAAGADWVDATLRGYGAGAGNAPLEVLAAVLDKAGLNPGLDVFKLLDAAEYVMGPILHFQPYPDRDSVAIGYAGVYSTFLLHAKRIGKELGVDPLAILLELGRRQAVAGQEDWILRVALELKEKEAGALAD”, the “soluble on expression in E. coli” value was “soluble”. With “MSWGTELWDQFDNLEKHTQWGIDILEKYIKFVKERTEIELSYAKQLRNLSKKYQPKKNSKEEEEYKYTSCKAFISNLNEMNDYAGQHEVISENMASQIIVDLARYVQELKQERKSNFHDGRKAQQHIETCWKQLESSKRRFERDCKEADRAQQYFEKMDADINVTKADVEKARQQAQIRHQMAEDSKADYSSILQKFNHEQHEYYHTHIPNIFQKIQEMEERRIVRMGESMKTYAEVDRQVIPIIGKCLDGIVKAAESIDQKNDSQLVIEAYKSGFEPPGDIEFEDYTQPMKRTVSDNSLSNSRGEGKPDLKFGGKSKGKLWPFIKKNKLMSLLTSPHQPPPPPPASASPSAVPNGPQSPKQQKEPLSHRFNEFMTSKPKIHCFRSLKRGLSLKLGATPEDFSNLPPEQRRKKLQQKVDELNKEIQKEMDQRDAITKMKDVYLKNPQMGDPASLDHKLAEVSQNIEKLRVETQKFEAWLAEVEGRLPARSEQARRQSGLYDSQNPPTVNNCAQDRESPDGSYTEEQSQESEMKVLATDFDDEFDDEEPLPAIGTCKALYTFEGQNEGTISVVEGETLYVIEEDKGDGWTRIRRNEDEEGYVPTSYVEVCLDKNAKDS” the “soluble on expression in E. coli” value was “soluble”. For “MSWIERIKSNITPTRKASIPEGVWTKCDSCGQVLYRAELERNLEVCPKCDHHMRMTARNRLHSLLDEGSLVELGSELEPKDVLKFRDSKKYKDRLASAQKETGEKDALVVMKGTLYGMPVVAAAFEFAFMGGSMGSVVGARFVRAVEQALEDNCPLICFSASGGARMQEALMSLMQMAKTSAALAKMQERGLPYISVLTDPTMGGVSASFAMLGDLNIAEPKALIGFAGPRVIEQTVREKLPPGFQRSEFLIEKGAIDMIVRRPEMRLKLASILAKLMNLPAPNPEAPREGVVVPPVPDQEPEALEHHHHHH”, the “soluble on expression in E. coli” value was “not soluble”. For “MSWITNYDAAQRELLMQKVQMQMSERRFRHVLGVEETAVALAAKYGADEAKASIAALTHDYAKERPNDEFELIIRRDGFDLALLNYGNEIWHGLVGADIVQRELAIDDEEILQAIRVHTTGAAKMSLLDKIIYVADYIEPGRDFPGVKEAREIALVDLDAAVAYETKHTLLHLIEQEHKIYPKTLETYNQWVVNQK”, the “soluble on expression in E. coli” value was “not soluble”. In the case of “MSYLIRVQIPDEPGSLGRVAEAVGLIGGNISSVDVVEAFSNGTVTDDMVVELPAGTMADELITAAHEVEGVEVDSIRPFSGRVDRRGQ”, the “soluble on expression in E. coli” value is reported as “soluble”. With “MSYMLPHLHNGWQVDQAILSEEDRVVVIRFGHDWDPTCMKMDEVLYSIAEKVKNFAVIYLVDITEVPDFNKMYELYDPCTVMFFFRNKHIMIDLGTGNNNKINWAMEDKQEMVDIIETVYRGARKGRGLVVSPKDYSTKYRY” the “soluble on expression in E. coli” value was “soluble”. In the case of “MSYNLNLSHNIYKDAKLGTYYFRITYYDKSNTRKYITRKGFKQRKDAVKKCNEMMDELEGVGHLNRLPFDKLVEEYIDWYSARRKTSSVKALKTHTNNHLLPYFKSMDVFKMTTQDVMKFQNKKLKEGHSGDYLKKMHVYLVSLLNHAMKFHELKQNVASLVGNFEIESQKRLNYWTLEQFNQFYEALATQQQKLFFKLLFYSGARKGEIRALTWRDINFDDDFIHINKTDYHGEVTAPKTKSAIRDIYLPTHMMYDIKDYLIWYKENNIYKDDYVLFGTFYKAYSESTIDRW”, the “soluble on expression in E. coli” value is reported as “not soluble”. For “MSYSKPLAYPSQKCVIKHMEVNSRFKLSHQSPSIRKIEKSTPLRIDSLTLKLDQCSVKINNILHTFRKEKLPKNMQLPQAFMCLMSKLFCGRRDPIQVKTLSIECKGSLQLPAGLCLKVSHLEILGSGVDKIADDLQPLLRGSKLQSITVNNDFNIHHPIFKTAHLLILKNPNKNLFRATAASNVMVKSTCQFLDLFDKIVELIRNWQSYGQKIGAIWNFSMRQEQFALLSLVQLRKLPGASYKGHEKFSESGRSIIIPIDNSAEVHAFVKKEQDDCNLNVIVRRRQF”, the “soluble on expression in E. coli” value was “soluble”. For “MSYTAEMIIRLREEKKEMRNRDFAISIGISEAELIAAYCTIGKAKRLKTDIAVLLENAPQLGTVMALTRNEHAVHEITGCFEKIVQNQHVLLTLGEIDLRIFAKQWKFCFEYEAIVLGKPTKSLHFFDQNGVAIFKLYSKDTTNMAEWNKLVDKLLHEDQSPVLDIPPKAIPNKRDIVELNVEEFRDRWRKMTDVHQLHGIISELKINRHDAVKYVGNEFAHELKREAIEIMLNQVAQQEVPIMCFVGNKGCIQIFSGQIKNIKQMGPWLNVLDKKFHLHLLIPGIKNVWCVRKPTSDGHVTSLEVFDENDEMIIQFFGMRKEGQKEREDWRSLLNSLPQSHAVAVA”, the “soluble on expression in E. coli” value was “not soluble”. For “MSYYHHHHHHDYDIPTTENLYFQGAMDPEFRVINLAYDDNGTGDPVVFIAGRGGAGRTWHPHQVPAFLAAGYRCITFDNRGIGATENAEGFTTQTMVADTAALIETLDIAPARVVGVSMGAFIAQELMVVAPELVSSAVLMATRGRLDRARQFFNKAEAELYDSGVQLPPTYDARARLLENFSRKTLNDDVAVGDWIAMFSMWPIKSTPGLRCQLDCAPQTNRLPAYRNIAAPVLVIGFADDVVTPPYLGREVADALPNGRYLQIPDAGHLGFFERPEAVNTAMLKFFASVKA”, the “soluble on expression in E. coli” value was “soluble”. With “MTAAPGTSMATPHVAGIAALLLQAHPSWTPDKVKTALIETADIVKPDEIADIAYGAGRVNAYKAINYDNYAKLVFTGYVANKGSQTHQFVISGASFVTATLYWDNANSDLDLYLYDPNGNQVDYSYTAYYGFEKVGYYNPTDGTWTIKVVSYSGSANYQVDVVSDGSLSQPGSSPSPQPEPTVDAKTFQGSVHLEHHHHHH” the “soluble on expression in E. coli” value was “not soluble”.
